{"source": "ChEMBL document CHEMBL4725261", "about": "“Design, synthesis and evaluation of carbamate-linked uridyl-based inhibitors of human ST6Gal I” (Bioorg Med Chem, 2020)", "proteins": {"B1": {"name": "Beta-galactoside alpha-2,6-sialyltransferase 1 (Homo sapiens), P15907 (protein)", "chain": "MIHTNLKKKFSCCVLVFLLFAVICVWKEKKKGSYYDSFKLQTKEFQVLKSLGKLAMGSDSQSVSSSSTQDPHRGRQTLGSLRGLAKAKPEASFQVWNKDSSSKNLIPRLQKIWKNYLSMNKYKVSYKGPGPGIKFSAEALRCHLRDHVNVSMVEVTDFPFNTSEWEGYLPKESIRTKAGPWGRCAVVSSAGSLKSSQLGREIDDHDAVLRFNGAPTANFQQDVGTKTTIRLMNSQLVTTEKRFLKDSLYNEGILIVWDPSVYHSDIPKWYQNPDYNFFNNYKTYRKLHPNQPFYILKPQMPWELWDILQEISPEEIQPNPPSSGMLGIIIMMTLCDQVDIYEFLPSKRKTDVCYYYQKFFDSACTMGAYHPLLYEKNLVKHLNQGTDEDIYLLGKATLPGFRTIHC"}}, "substrate": "CC(=O)N[C@H]1[C@H]([C@H](O)[C@H](O)CO)O[C@](OP(=O)(O)OC[C@H]2O[C@@H](n3ccc(N)nc3=O)[C@H](O)[C@@H]2O)(C(=O)O)C[C@@H]1O", "assay": "Binding affinity to recombinant human N-terminal 6His-tagged ST6Gal-1 (Glu44 to Cys406 residues)", "data": [{"protein": "B1", "values": [{"measurement": "Km", "value": 37.2, "unit": "µM"}]}]}
